For data set [1], the target named is T1, Oct-2 (UniProt P09086 1-479). As to the kind of experiment: EMSA. (A gel shift assay detects complexes by their altered migration in electrophoresis.)
In data set [2] the target is T1, Oct-2. Put plainly: competition.
The target of data set [3] is T1, Oct-2. Put plainly: competition. This is another data set of the same source.

T1 sequence (P09086 whole entry): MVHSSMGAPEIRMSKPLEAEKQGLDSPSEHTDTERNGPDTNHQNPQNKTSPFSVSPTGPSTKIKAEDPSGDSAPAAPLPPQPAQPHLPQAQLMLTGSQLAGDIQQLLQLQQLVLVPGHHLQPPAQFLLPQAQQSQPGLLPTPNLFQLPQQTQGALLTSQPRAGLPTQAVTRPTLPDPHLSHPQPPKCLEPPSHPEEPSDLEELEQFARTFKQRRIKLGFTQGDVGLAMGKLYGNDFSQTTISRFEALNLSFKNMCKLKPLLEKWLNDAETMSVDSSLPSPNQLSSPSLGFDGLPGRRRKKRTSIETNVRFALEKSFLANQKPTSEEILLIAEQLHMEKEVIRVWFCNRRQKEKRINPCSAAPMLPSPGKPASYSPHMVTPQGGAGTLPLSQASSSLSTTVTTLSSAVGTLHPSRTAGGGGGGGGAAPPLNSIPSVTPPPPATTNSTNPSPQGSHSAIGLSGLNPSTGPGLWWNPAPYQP

B1: IL2-deltaOAP/OCT (dsDNA)
DNA 1: ATATGTAAAACATTT
DNA 2: AAATGTTTTACATAT
As for B1, in the data set with Oct-2 [1], the binding result is given as “binds”.

B2: IL2-mOAP/OCT (dsDNA)
DNA 1: TTGAAAATATTTTTAATATGTAAAACATTT
DNA 2: AAATGTTTTACATATTAAAAATATTTTCAA
Consider B2, for which the binding result with Oct-2 [2] is recorded as “binds”.

B3: IL2-OAP/mOCT (dsDNA)
DNA 1: TTGAAAATATGTGTAATATAATACTCATTT
DNA 2: AAATGAGTATTATATTACACATATTTTCAA
On to B3, for which the binding result with Oct-2 [3] was “no binding”.

The values are drawn from publication PMC2191694.
